Data reported in PMC11316045.

Assays:
[1] = FACS of cell surface PD-L1, H460; details: glycan lost; control: wild type
[2] = anti-Flag immunofluorescence, also with HSP90B1/DAPI co-staining; details: glycan lost; control: wild type
[3] = anti-Flag immunofluorescence, H460 and PD-L1 KO cells; details: glycan lost; control: untreated

Substance | localisation_or_trafficking [1] | localisation_or_trafficking [2] | localisation_or_trafficking [3]
PD-L1: N35Q | no change | no change | –
PD-L1: N200Q | no change | no change | –
PD-L1: tunicamycin (5μg/ml) | – | – | changes
PD-L1: N219Q | decreases | changes | –
PD-L1: N192Q | no change | no change | –
